# Assay results reported in IntAct's records for PubMed 25910212.
# B1: SH2 domain-containing protein 1A (Homo sapiens), O60880 (parent)
# chain: MDAVAVYHGKISRETGEKLLLATGLDGSYLLRDSESVPGVYCLCVLYHGYIYTYRVSQTETGSWSAETAPGVHKRYFRKIKNLISAFQKPDQGIVIPLQYPVEKKSSARSTQGTTGIREDPDVCLKAP
# B2: U4/U6 small nuclear ribonucleoprotein Prp31 (Homo sapiens), Q8WWY3 (parent)
# chain: MSLADELLADLEEAAEEEEGGSYGEEEEEPAIEDVQEETQLDLSGDSVKTIAKLWDSKMFAEIMMKIEEYISKQAKASEVMGPVEAAPEYRVIVDANNLTVEIENELNIIHKFIRDKYSKRFPELESLVPNALDYIRTVKELGNSLDKCKNNENLQQILTNATIMVVSVTASTTQGQQLSEEELERLEEACDMALELNASKHRIYEYVESRMSFIAPNLSIIIGASTAAKIMGVAGGLTNLSKMPACNIMLLGAQRKTLSGFSSTSVLPHTGYIYHSDIVQSLPPDLRRKAARLVAAKCTLAARVDSFHESTEGKVGYELKDEIERKFDKWQEPPPVKQVKPLPAPLDGQRKKRGGRRYRKMKERLGLTEIRKQANRMSFGEIEEDAYQEDLGFSLGHLGKSGSGRVRQTQVNEATKARISKTLQRTLQKQSVVYGGKSTIRDRSSGTASSVAFTPLQGLEIVNPQAAEKKVAEANQKYFSSMAEFLKVKGEKSGLMST
# partner: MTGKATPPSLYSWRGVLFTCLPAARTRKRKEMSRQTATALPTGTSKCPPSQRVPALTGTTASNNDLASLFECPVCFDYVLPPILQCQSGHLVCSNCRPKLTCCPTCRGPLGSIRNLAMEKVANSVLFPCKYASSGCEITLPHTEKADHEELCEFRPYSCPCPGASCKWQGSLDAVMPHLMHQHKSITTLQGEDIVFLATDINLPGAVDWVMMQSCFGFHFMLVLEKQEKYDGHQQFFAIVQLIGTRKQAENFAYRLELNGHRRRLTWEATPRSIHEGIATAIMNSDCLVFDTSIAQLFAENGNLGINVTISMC
# B3: Plasma membrane ascorbate-dependent reductase CYBRD1 (Homo sapiens), Q53TN4 (parent)
# chain: MAMEGYWRFLALLGSALLVGFLSVIFALVWVLHYREGLGWDGSALEFNWHPVLMVTGFVFIQGIAIIVYRLPWTWKCSKLLMKSIHAGLNAVAAILAIISVVAVFENHNVNNIANMYSLHSWVGLIAVICYLLQLLSGFSVFLLPWAPLSLRAFLMPIHVYSGIVIFGTVIATALMGLTEKLIFSLRDPAYSTFPPEGVFVNTLGLLILVFGALIFWIVTRPQWKRPKEPNSTILHPNGGTEQGARGSMPAYSGNNMDKSDSELNSEVAARKRNLALDEAGQRSTM
# B4: Adiponectin (Homo sapiens), Q15848 (parent)
# chain: MLLLGAVLLLLALPGHDQETTTQGPGVLLPLPKGACTGWMAGIPGHPGHNGAPGRDGRDGTPGEKGEKGDPGLIGPKGDIGETGVPGAEGPRGFPGIQGRKGEPGEGAYVYRSAFSVGLETYVTIPNMPIRFTKIFYNQQNHYDGSTGKFHCNIPGLYYFAYHITVYMKDVKVSLFKKDKAMLFTYDQYQENNVDQASGSVLLHLEVGDQVWLQVYGEGERNGLYADNDNDSTFTGFLLYHDTN
# partner: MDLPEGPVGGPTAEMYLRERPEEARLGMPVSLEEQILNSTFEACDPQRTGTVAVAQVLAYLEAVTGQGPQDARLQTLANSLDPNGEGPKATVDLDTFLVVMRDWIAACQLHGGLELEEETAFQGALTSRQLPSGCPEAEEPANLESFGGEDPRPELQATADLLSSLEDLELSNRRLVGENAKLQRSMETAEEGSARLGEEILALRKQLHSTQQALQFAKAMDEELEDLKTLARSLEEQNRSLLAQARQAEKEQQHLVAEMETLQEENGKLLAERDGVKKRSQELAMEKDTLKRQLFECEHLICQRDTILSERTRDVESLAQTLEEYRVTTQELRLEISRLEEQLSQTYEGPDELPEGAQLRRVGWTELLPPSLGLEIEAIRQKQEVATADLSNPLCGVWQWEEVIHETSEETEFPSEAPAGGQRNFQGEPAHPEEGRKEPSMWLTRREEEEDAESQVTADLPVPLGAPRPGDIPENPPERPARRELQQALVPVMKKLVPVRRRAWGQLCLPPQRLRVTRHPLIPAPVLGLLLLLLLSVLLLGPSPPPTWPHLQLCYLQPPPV
# B5: U4/U6 small nuclear ribonucleoprotein Prp3 (Homo sapiens), O43395 (parent)
# chain: MALSKRELDELKPWIEKTVKRVLGFSEPTVVTAALNCVGKGMDKKKAADHLKPFLDDSTLRFVDKLFEAVEEGRSSRHSKSSSDRSRKRELKEVFGDDSEISKESSGVKKRRIPRFEEVEEEPEVIPGPPSESPGMLTKLQIKQMMEAATRQIEERKKQLSFISPPTPQPKTPSSSQPERLPIGNTIQPSQAATFMNDAIEKARKAAELQARIQAQLALKPGLIGNANMVGLANLHAMGIAPPKVELKDQTKPTPLILDEQGRTVDATGKEIELTHRMPTLKANIRAVKREQFKQQLKEKPSEDMESNTFFDPRVSIAPSQRQRRTFKFHDKGKFEKIAQRLRTKAQLEKLQAEISQAARKTGIHTSTRLALIAPKKELKEGDIPEIEWWDSYIIPNGFDLTEENPKREDYFGITNLVEHPAQLNPPVDNDTPVTLGVYLTKKEQKKLRRQTRREAQKELQEKVRLGLMPPPEPKVRISNLMRVLGTEAVQDPTKVEAHVRAQMAKRQKAHEEANAARKLTAEQRKVKKIKKLKEDISQGVHISVYRVRNLSNPAKKFKIEANAGQLYLTGVVVLHKDVNVVVVEGGPKAQKKFKRLMLHRIKWDEQTSNTKGDDDEESDEEAVKKTNKCVLVWEGTAKDRSFGEMKFKQCPTENMAREHFKKHGAEHYWDLALSESVLESTD
# partner: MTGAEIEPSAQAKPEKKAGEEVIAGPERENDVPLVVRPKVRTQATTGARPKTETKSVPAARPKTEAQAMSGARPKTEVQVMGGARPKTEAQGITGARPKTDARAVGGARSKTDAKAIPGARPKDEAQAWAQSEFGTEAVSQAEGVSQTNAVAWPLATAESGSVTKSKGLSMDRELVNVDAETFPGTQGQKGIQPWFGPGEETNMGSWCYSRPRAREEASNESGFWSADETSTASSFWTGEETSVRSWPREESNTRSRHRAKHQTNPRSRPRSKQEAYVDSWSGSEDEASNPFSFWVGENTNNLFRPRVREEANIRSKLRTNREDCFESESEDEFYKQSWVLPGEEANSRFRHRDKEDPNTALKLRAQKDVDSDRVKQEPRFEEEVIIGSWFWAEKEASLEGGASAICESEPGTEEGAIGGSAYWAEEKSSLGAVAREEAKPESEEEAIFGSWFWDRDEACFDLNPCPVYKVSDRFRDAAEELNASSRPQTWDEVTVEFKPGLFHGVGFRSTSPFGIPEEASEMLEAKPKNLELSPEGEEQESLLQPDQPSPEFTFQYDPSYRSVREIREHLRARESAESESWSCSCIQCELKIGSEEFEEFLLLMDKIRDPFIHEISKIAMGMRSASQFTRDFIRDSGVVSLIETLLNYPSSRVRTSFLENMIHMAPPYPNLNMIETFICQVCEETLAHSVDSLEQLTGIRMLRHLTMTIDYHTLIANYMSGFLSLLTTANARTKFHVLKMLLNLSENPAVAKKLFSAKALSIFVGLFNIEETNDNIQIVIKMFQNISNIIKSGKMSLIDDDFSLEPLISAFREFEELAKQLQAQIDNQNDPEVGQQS
# B6: Polycomb complex protein BMI-1 (Homo sapiens), P35226 (parent)
# chain: MHRTTRIKITELNPHLMCVLCGGYFIDATTIIECLHSFCKTCIVRYLETSKYCPICDVQVHKTRPLLNIRSDKTLQDIVYKLVPGLFKNEMKRRRDFYAAHPSADAANGSNEDRGEVADEDKRIITDDEIISLSIEFFDQNRLDRKVNKDKEKSKEEVNDKRYLRCPAAMTVMHLRKFLRSKMDIPNTFQIDVMYEEEPLKDYYTLMDIAYIYTWRRNGPLPLKYRVRPTCKRMKISHQRDGLTNAGELESDSGSDKANSPAGGIPSTSSCLPSPSTPVQSPHPQFPHISSTMNGTSNSPSGNHQSSFANRPRKSSVNGSSATSSG
# partner: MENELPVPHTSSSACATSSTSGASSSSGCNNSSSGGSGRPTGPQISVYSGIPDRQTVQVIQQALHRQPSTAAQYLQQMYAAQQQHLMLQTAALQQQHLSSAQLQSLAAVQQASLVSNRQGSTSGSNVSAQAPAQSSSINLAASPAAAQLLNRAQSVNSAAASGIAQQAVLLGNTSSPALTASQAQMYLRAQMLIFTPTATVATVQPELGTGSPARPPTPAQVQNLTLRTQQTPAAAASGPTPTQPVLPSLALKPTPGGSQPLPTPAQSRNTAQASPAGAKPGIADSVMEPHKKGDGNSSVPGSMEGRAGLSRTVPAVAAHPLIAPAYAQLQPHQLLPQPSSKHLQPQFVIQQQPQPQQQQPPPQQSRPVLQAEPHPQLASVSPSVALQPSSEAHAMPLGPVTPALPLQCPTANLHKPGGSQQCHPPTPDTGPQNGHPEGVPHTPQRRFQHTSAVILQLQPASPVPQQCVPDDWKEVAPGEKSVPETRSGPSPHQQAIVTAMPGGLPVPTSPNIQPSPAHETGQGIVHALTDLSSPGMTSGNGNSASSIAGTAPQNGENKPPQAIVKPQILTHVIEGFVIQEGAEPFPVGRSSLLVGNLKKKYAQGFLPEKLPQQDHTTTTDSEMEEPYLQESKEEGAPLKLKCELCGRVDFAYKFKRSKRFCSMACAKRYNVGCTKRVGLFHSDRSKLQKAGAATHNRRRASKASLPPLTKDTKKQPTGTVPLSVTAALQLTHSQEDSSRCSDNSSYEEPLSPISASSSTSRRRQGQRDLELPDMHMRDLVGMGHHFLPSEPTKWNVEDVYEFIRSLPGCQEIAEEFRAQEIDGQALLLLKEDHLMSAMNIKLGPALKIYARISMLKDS
# Variants of: B1
# Conditions: with TNK2, Q07912-2
# Chain of TNK2, Q07912-2 (Q07912 other isoform, or with tags, fused parts or gaps): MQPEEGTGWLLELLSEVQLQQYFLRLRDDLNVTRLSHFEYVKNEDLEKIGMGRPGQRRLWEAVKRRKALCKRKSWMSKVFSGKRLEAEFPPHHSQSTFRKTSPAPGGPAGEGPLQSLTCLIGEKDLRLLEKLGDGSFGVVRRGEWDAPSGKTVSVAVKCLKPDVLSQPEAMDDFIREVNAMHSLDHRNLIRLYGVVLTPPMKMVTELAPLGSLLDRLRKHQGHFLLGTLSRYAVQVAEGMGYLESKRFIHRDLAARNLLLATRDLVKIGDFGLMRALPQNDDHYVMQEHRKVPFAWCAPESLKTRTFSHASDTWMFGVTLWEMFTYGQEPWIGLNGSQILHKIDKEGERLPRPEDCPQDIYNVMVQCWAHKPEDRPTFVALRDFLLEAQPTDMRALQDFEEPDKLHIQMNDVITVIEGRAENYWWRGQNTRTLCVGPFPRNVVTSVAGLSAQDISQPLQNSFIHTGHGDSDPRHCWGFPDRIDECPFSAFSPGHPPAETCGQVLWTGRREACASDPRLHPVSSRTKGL
row,effect of a mutation on the interaction,Variant
1,with no effect,P101L
2,with no effect,R32T

# Variants of: B2
# Conditions: with SIAH1, Q8IUQ4-2
row,effect of a mutation on the interaction,Variant
1,with no effect,L107V

# Variants of: B3
# Conditions: with stx4_human STX4, Q12846
# Chain of stx4_human STX4, Q12846 (Q12846 whole entry): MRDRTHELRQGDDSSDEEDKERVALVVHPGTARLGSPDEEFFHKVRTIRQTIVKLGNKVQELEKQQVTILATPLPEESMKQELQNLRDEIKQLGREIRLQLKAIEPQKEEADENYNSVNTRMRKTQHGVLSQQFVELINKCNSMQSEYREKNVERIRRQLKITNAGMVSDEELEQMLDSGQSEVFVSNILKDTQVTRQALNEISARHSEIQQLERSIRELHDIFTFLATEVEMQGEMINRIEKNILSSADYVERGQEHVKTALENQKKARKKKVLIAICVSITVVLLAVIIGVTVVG
row,effect of a mutation on the interaction,Variant
1,with no effect,R226H

# Variants of: B4
# Conditions: with kash5_human KASH5, Q8N6L0
row,effect of a mutation on the interaction,Variant
1,with no effect,Y111H
2,with no effect,I164T

# Variants of: B5
# Conditions: with gasp2_human GPRASP2, Q96D09
row,effect of a mutation on the interaction,Variant
1,with no effect,T494M
2,with no effect,P493S
3,with no effect,A489D

# Variants of: B6
# Conditions: with PHC2, Q8IXK0-5
row,effect of a mutation on the interaction,Variant
1,disrupting interaction strength,C18Y
